Assay results: publication PMC7979752

Tests used:
[1] = molecular target: SmhC (S. marcescens MSU-97)
[2] = molecular target: SmhB (S. marcescens MSU-97); experiment: crystal structure; SmhB pore form, crystallised in 0.2 M calcium chloride, 40% MPD, 16 °C; space group C2, 6.98 Å

SmhB (natural protein)
percentage lysis of horse erythrocytes with equimolar SmhB and SmhC, 2 h [1]: 5%
stoichiometry N [2]: 10
